For assay [1], the target named is human siglec12 (human) (UniProt Q96PQ1). As to the kind of experiment: cell-based or functional assay.
Assay [2] concerns the target siglec6 with C-terminal FLAG tag on Expi 293 cells (UniProt O43699). Briefly: flow cytometry, transfected Expi 293, 500 nM. For orientation: In flow cytometry, cells or beads pass a laser one at a time.
In assay [3] the target is siglec12 with C-terminal FLAG tag on Expi 293 cells (UniProt Q96PQ1). As to the kind of experiment: flow cytometry, transfected Expi 293, 500 nM.
Assay [4] has as its target human siglec12 (human) (UniProt Q96PQ1). Briefly: FACS U937.

siglec12 with C-terminal FLAG tag on Expi 293 cells, sequence (Q96PQ1 19-595): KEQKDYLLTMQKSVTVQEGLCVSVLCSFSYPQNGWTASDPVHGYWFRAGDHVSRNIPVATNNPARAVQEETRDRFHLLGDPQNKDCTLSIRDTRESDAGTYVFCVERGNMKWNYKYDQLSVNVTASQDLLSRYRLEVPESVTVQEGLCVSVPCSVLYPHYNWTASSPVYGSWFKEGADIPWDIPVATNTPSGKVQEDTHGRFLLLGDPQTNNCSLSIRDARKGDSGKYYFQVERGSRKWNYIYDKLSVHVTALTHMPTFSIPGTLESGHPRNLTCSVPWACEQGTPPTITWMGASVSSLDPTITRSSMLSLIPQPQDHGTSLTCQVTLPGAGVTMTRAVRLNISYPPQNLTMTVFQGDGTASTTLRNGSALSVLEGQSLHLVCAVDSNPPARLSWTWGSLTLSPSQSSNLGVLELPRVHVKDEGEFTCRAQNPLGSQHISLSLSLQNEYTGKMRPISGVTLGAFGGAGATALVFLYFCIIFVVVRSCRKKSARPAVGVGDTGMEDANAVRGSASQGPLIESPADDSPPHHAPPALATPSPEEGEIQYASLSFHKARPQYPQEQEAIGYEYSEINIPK
siglec6 with C-terminal FLAG tag on Expi 293 cells, sequence (O43699 27-453 limits assumed): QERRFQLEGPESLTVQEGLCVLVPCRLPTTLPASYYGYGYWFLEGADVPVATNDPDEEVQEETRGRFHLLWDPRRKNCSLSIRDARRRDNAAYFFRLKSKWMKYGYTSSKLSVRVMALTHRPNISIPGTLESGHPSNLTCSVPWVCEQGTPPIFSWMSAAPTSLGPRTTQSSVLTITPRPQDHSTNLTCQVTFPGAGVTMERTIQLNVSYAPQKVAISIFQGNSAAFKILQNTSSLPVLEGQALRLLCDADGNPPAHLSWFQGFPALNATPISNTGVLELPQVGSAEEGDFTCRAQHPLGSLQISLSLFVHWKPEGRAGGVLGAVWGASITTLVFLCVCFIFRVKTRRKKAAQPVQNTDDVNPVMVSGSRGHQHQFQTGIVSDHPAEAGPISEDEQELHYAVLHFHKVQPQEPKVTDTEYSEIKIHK

B1: S0042 (antibody, V domains shown)
VH: QVQLVQSGTEVKKPGASVKVSCKVSGYTLSDLSIHWVRQAPGKGLEWMGGFEPEDGEIIYAQKFQGRVIMTEDTSTDTAYMKLSSLRSEDTAVYYCATDKRYFDWLLSGFDYWGQGTLVTVSS
VL: DIQLTQSPSFLSASVGDRVTITCRASQGISSYLAWYQQKPGKAPKLLIFAASTLQSGVPSRFSGSGSGTEFTLTISSLQPEDFATYYCQRLHSYPRTFGQGTKVEIKRA
The molecule B1 yielded a % Internalization at 2 hours, U937 cells with human siglec12 (human) [1] of 66%. This molecule also came in with an MFI in assay [2] of 25.7. Also, the MFI in assay [3] stood at 538. Moreover, in the assay with human siglec12 (human) [4], the Flow % Gated was determined as 4% and the Flow Fluor MFI is 107.

B2: S0040 (antibody, V domains shown)
VH: QVQLVQSGAEVKKPGASVKVSCKASGYTFTSYDINWVRQATGQGLEWMGWMNPNSGNTGYAQNFQGRVTMTRNTSINTAYMELSSLRSEDTAVYYCTRGGPTLVRGVIIRDAFDFWGQGTMVTVSS
VL: EIVMTQSPATLSVSPGERATLSCRASQSVSNSFAWYQQKPGQAPRLLIYGAFTRATGIPARFSGSGSGTEFTLTISSLQSEDFAVYYCQQYKTWPLTFGGGTKVEIKR
In the assay with human siglec12 (human) [4], B2 showed a Flow % Gated of 6% and a Flow Fluor MFI of 111.

B3: S0103 (antibody, V domains shown)
VH: QVQLVQSGAEVKKPGASVKVSCKASGYTFTSYDINWVRQATGQGLEWMGWMNPNSGNTGYAQNFQGRVTMTRDTSVNTAYMELSSLRSEDTAVYYCARGGPNLVRGVIIRDAFDFWGQGTMVTVSS
VL: EIVMTQSPATLSVSPGERATLSCRASQSVSNSFAWYQQKPGQAPRLLIYGAFTRATGIPARFSGSGSGIEFTLTISSLQSEDFAVYYCQQYKTWPLTFGGGTKVEIKR
For the molecule B3, in the assay with human siglec12 (human) [4], the Flow % Gated was found to be 2% and the Flow Fluor MFI stood at 97.

B4: S0023 (antibody, V domains shown)
VH: EVQLLESGGGLVQPGGSLRLSCAASGFTFSTFAMSWVRQAPGKGLEWVSTISGGGDSTYYADSVKGRFTISRDNSKNMMSLQMNSLRAVDTAVYYCVKGGGDEYFYYGMDVWGQGTTVTVSS
VL: DIQMTQSPSSLSASVGDRVTITCRASQGIRNDLGWYQQKPGKAPKRLIYSASSLQSGVPSRFSGSGSGTEFTLTISSLQPEDFATYYCLQHNSYPYTFGQGTPLDIKR
For B4, the % Internalization at 2 hours, U937 cells in the assay with human siglec12 (human) [1] is 32%. In assay [2], this molecule had an MFI of 29.3. This molecule displayed an MFI in assay [3] of 484. In the assay with human siglec12 (human) [4], the Flow % Gated worked out at 3% and the Flow Fluor MFI stood at 93.

B5: S0057 (antibody, V domains shown)
VH: QGQLVQSGAEVKKPGASVKVSCKASGYTFNNYGISWVRQAPGQGLEWMGWISAYNGFTRSTQKFQGRVTLTTDTSTSTAHMELRSLRSDDTAAYYCARDGGDGFDPWGQGTLVTVSS
VL: EIVLTQSPATLSLSPGERATLSCRASQSVSSFLAWYQQKPGQAPRLLIFDASNRATGIPARFSGSGSGTDFTLTISSLEPEDFAVYYCQQRSNWITFGQGTRLEIKRA
For B5, in the assay with human siglec12 (human) [1], the % Internalization at 2 hours, U937 cells was 58%; the MFI of pH sensitive dye, Siglec12 complexes, 0 hours turned out to be 20; the MFI of pH sensitive dye, Siglec12 complexes, 4 hours came out at 24.7; the MFI of pH sensitive dye, Siglec12 complexes, 24 hours stood at 26.5. Besides, in the assay with human siglec12 (human) [1], the Siglec12 % surface expression, 0 min worked out at 100%; the Siglec12 % surface expression, 15 min was 96%; the Siglec12 % surface expression, 30 min is 84%; the Siglec12 % surface expression, 45 min amounted to 73%. Besides, in the assay with human siglec12 (human) [1], the Siglec12 % surface expression, 60 min is 65%; the Siglec12 % surface expression, 90 min turned out to be 47%; the Siglec12 % surface expression, 120 min amounted to 40%. Further, the MFI in assay [2] is 29.8. The MFI in assay [3] was found to be 912. In the assay with human siglec12 (human) [4], this molecule registered a Flow % Gated of 79% and a Flow Fluor MFI of 368.

These data come from patent US20250019432A1.
